Results reported in patent US6518054B1, “Metallo-endopeptidases” (Rijksuniverstteit Te Groningen, priority 1997, dated 2003).

Experiments:
β-Casein = experiment: Proteolytic (cleavage) specificity on β-casein, reversed phase peptide pattern; assay type: biochemical; conditions: moderate and high temperatures (60° C. and 100° C.)
Method: FIG. 3. Typical proteolytic specificity of TLP-ste and the 8-fold mutant β-Casein (1 mg/ml) was incubated with TLP-ste or the 8-fold mutant at a molar ratio of 1000:1 for 1 hour at 60° C. and 100° C., respectively. Under these conditions β-casein behaves as a non-compact and largely flexible structure. The peptides resulting from hydrolysis were derivatized with dansyl-chloride. The proteolytic products were separated by loading a sample corresponding to 50 μg β-casein on a reversed phase column (RP-304, Bio-Rad Laboratories, Watford, Herts., UK). The mobile phase used was 50 mM NaAc, pH 5.2. Peptides were eluted with a linear gradient from 0-60% acetonitrile at a flow rate of 1 ml/min. Absorption of the eluting peptides was monitored at 254 nm.

[1] = assay type: physicochemical
Method: Stabilities of TLPs were determined at different temperatures. Shown are the first-order inactivation curves for TLP-ste incubated at 80° C. (Δ) and 90° C. (+), thermolysin at 90° C. (Δ), and the 8-fold mutant at 100° C. (●), respectively. […] Samples, taken at the various time points, were quickly cooled on ice (15 s) and transferred to 50° C. to prevent cold denaturation. Residual activity was determined using casein (0.8%) as a substrate in 50 mM TrisHCl (pH 7.5), 5 mM CaCl2 as described previously (Eijsink, V. G. H., Veltman, O. R., Aukema, W., Vriend, G. & Venema, G. Nature Struct. Biol. 2, 374-379 (1995)).

B1: 8-fold mutant: TLP-ste with A4T, T56A, G58A, T63F, S65P, A69P and a disulfide bridge G8C-N60C (protein)
chain: VAGTSTVCVGRGVLGDQKYINTTYSSYYGYYYLQDNTRGSGIFTYDGRNRTVLPGSLWADADCQFFAPYDAPAVDAHYYAGVVYDYYKNVHGRLSYDGSNAAIRSTVHYGRGYNNAFWNGSQMVYGDGDGQTFLPFSGGIDVVGHELTHAVTDYTAGLVYQNESGAINEAMSDIFGTLVEFYANRNPDWEIGEDIYTPGVAGDALRSMSDPAKYGDPDHYSKRYTGTQDNGGVHTNSGIINKAAYLLSQGGVHYGVSVNGIGRDKMGKIFYRALVYYLTPTSNFSQLRAACVQAAADLYGSTSQEVNSVKQAFNAVGVY
cleavage specificity, effect of the stabilizing mutations (β-Casein): largely unaffected | half life at 100° C. [1]: ~3 h | half-life at 100° C. relative to the wild-type [1]: more than 1000 times | half-life 80° C. ([1]; buffer, pH 5.3): stable | half-life 90° C. ([1]; buffer, pH 5.3): stable | half-life 100° C. ([1]; buffer, pH 5.3): 2.83 h
